In patent US20240228562A1, “NOVEL LIPOCALIN MUTEINS SPECIFIC FOR CONNECTIVE TISSUE GROWTH FACTOR (CTGF)” (PIERIS PHARMACEUTICALS GMBH, priority 2021, published 2024):

T1: CTGF (Homo sapiens, UniProt P29279)
T1 sequence (P29279 27-349): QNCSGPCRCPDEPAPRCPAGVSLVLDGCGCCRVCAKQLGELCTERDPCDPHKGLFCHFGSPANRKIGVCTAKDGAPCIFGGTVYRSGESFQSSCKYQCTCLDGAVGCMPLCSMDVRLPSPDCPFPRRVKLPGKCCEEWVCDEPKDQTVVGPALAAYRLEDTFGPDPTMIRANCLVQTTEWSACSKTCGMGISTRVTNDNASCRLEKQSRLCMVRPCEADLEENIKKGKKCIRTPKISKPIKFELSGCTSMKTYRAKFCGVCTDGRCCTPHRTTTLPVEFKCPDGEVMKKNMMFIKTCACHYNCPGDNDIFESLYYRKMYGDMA

T2: huNOV (Homo sapiens, UniProt P48745)
T2 sequence (P48745 32-357): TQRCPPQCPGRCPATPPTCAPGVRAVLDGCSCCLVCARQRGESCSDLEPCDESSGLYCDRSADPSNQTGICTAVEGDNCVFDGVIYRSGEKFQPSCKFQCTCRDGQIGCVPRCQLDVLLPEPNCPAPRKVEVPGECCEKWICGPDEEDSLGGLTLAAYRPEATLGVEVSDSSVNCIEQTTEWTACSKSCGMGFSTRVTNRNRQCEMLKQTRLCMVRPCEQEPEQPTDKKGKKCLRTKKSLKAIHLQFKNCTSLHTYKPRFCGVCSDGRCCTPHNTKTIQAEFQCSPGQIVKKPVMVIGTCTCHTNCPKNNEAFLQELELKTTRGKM

T3: huCYR61 (Homo sapiens, UniProt O00622)
T3 sequence (O00622 25-381): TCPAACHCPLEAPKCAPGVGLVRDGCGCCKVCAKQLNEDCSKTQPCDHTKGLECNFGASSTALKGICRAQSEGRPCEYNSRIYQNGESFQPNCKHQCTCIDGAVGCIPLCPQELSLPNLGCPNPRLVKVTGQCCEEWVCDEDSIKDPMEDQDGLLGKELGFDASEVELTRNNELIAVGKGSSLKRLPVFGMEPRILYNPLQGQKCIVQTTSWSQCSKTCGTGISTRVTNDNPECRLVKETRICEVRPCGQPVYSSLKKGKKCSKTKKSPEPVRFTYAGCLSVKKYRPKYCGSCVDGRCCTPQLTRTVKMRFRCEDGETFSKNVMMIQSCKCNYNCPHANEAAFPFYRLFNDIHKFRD

T4: huWISP-1 (Homo sapiens, UniProt O95388)
T4 sequence (O95388 23-367): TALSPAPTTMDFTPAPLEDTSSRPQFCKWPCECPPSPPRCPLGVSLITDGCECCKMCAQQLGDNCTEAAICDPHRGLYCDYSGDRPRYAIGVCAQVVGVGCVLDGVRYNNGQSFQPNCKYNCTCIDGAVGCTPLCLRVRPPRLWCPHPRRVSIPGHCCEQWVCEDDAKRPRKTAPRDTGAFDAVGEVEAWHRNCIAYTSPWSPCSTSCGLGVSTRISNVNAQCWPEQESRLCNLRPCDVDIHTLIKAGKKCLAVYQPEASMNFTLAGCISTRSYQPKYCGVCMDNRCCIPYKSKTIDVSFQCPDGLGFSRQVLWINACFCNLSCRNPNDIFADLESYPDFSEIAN


Assays:
CTGF = target: T1, CTGF; experiment: Specificity ELISA (CCN proteins), human CTGF; format: binding; details: coated 1 μg/ml, muteins from 1000 nM
Description: (§1) Binding of muteins to closely related proteins of CTGF was tested by an ELISA assay. In detail, a 384-well plate suitable for fluorescence measurements (Greiner FLUOTRAC™ 600, black flat bottom, high-binding) was coated with 20 μl of human CTGF or the other members of the CCN protein family at a concentration of 1 μg/ml in PBS over night at 4° C. After washing with PBS with 0.05% Tween 20, wells were blocked with 100 μl blocking buffer containing 0.1% Tween 20 and 2% BSA (PBS-T/BSA) for 1 h at room temperature. 20 μl of serially diluted muteins starting at 1000 nM were incubated in PBS-T/BSA for 1 h at room temperature (RT).
(§2) The residual supernatants were discarded and 20 μl HRP-labeled anti-NGAL or anti-Strep-Tag antibody was added at a predetermined optimal concentration in PBS-T/BSA and incubated for 1 h at RT. After washing, 20 μl fluorogenic HRP substrate (QuantaBlu, Thermo) was added to each well, and the reaction was allowed to proceed for 2 to 60 minutes. The fluorescence intensity of every well on the plate was read using a fluorescence microplate reader (Tecan). When the signal for human CTGF approached saturation, the cross reactivity to the other proteins was assessed.

[1] = target: T5, Human CTGF with a human IgG1 Fc Tag (Homo sapiens, UniProt P29279, H83D); experiment: SPR epitope analysis (simultaneous binding)
T5 construct: purchased Creative Biomart
T5 sequence (P29279 with tags, fused parts or gaps H83D): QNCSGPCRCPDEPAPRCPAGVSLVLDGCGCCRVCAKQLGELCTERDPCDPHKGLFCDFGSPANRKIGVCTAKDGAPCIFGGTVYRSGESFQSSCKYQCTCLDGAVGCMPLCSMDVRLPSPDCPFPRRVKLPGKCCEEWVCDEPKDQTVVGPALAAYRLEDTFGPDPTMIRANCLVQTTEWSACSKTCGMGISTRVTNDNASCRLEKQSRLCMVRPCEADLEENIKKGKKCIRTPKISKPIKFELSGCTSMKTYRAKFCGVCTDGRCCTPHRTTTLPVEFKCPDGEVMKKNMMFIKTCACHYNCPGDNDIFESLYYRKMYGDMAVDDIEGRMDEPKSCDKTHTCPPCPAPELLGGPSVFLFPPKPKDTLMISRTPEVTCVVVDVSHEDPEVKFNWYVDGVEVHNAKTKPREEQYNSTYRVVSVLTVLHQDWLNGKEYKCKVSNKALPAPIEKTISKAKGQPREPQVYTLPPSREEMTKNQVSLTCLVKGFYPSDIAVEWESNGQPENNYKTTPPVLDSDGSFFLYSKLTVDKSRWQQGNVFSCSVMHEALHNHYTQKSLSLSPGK
Description: Surface plasmon resonance (SPR) was used to analyze the epitopes and determine simultaneous binding of different lipocalin muteins. Human CTGF with a human IgG1 Fc Tag was directly immobilized to a CM5 Chip (Creative Biomart, 10 μg/mL in 10 mM sodium acetate pH 4.5) until an immobilization level of 470-630 resonance units was achieved. The reference channel was activated/deactivated. […] As control, single lipocalin muteins were injected and the resulting signal of single and mixtures was compared at the end of the injection. The chip was regenerated with 3 M MgCl2 and Glycine-HCl pH1.5 for each 60 s at a flowrate of 15 μL/min.
“Yes” means simultaneous binding is possible, “no” stands for same or overlapping epitope, “n.t.” stands for not tested.

huNOV = target: T2, huNOV; experiment: Specificity ELISA (CCN proteins), huNOV; format: binding; details: coated 1 μg/ml; assessed when human CTGF signal approached saturation
Description: as §1, §2

[2] = Thermal stability assessment by nanoDSC; format: physicochemical; details: 1 mg/mL in PBS, scan 25-100° C. at 1° C./min; for TM: major transition
How it was run: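 CTGF-specific lipocalin muteins at 1 mg/mL in PBS scanned from 25 to 100° C at 1° C/min by capillary nano-DSC. Where several transitions occur, the Tm of the major unfolding event is reported, along with onset temperature. Some muteins were expressed in E. coli, others in CHO cells.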

huCYR61 = target: T3, huCYR61; experiment: Specificity ELISA (CCN proteins), huCYR61; format: binding; details: coated 1 μg/ml; assessed when human CTGF signal approached saturation
Description: as §1, §2

huWISP-1 = target: T4, huWISP-1; experiment: Specificity ELISA (CCN proteins), huWISP-1; format: binding; details: coated 1 μg/ml; assessed when human CTGF signal approached saturation
Description: as §1, §2

[3] = SPR, mixed and injected simultaneously at 750 nM or 1000 nM

ELISA binding to HUMAN CTGF (CTGF)	Simultaneous binding with SEQ ID NO: 7 [1, 3]	Simultaneous binding with SEQ ID NO: 9 [1, 3]	Simultaneous binding with SEQ ID NO: 25 [1, 3]	Simultaneous binding with SEQ ID NO: 29 [1, 3]	Simultaneous binding with SEQ ID NO: 60 and 61 (control antibody) [1, 3]	ELISA binding to huNOV (huNOV)	ELISA binding to huCYR61 (huCYR61)	ELISA binding to huWISP-1 (huWISP-1)	Epitope overlap with anti-CTGF antibody of SEQ ID NOs: 60 and 61 [1]	Simultaneous binding with SEQ ID NO: 3 [1, 3]	Molecule	TM [2]	ONSET MELTING [2]
Binding	yes	yes	no	no	yes	No binding	No binding	No binding	–	–	SEQ ID NO: 29: parent CTGF-binding hNGAL lipocalin mutein (protein, lipocalin mutein) QDSTSDLIPAPPLSKVPLQQNFQDNQFHGKWYVVGWAGNIKLREDKDPFKMSATIYELKEDKSYNVTEVVFEQKKCHYIIKTFVPGSQPGEFTLGDIKSPPGETSSLVRVVSTNYNQHAMVFFKKVFQNREFFWITLYGRTKELTSELKENFIRFSKSLGLPENHIVFPVPIDQCIDG	76 °C	–
Binding	–	–	–	–	–	No binding	No binding	No binding	overlapped	–	SEQ ID NO: 23: optimized CTGF-binding hNGAL lipocalin mutein (protein, lipocalin mutein) QDSTSDLIPAPPLSKVPLQQNFQDNQFQGKWYVVGVAGNAILRPDKQPAKMFATIYELKEDKSYDVTSVRFEAKSCKYTIKTFVPGSQPGEFTSGQIKSAPGQTSTLVRVVSTNYNQHAMVFFKHVSQNREIFVITLYGRTKELTSELKENFIRFSKSLGLPENHIVFPVPIDQCIDG	71 °C	55 °C
Binding	–	–	–	–	–	No binding	No binding	No binding	–	–	SEQ ID NO: 15: optimized CTGF-binding hNGAL lipocalin mutein (protein, lipocalin mutein) QDSTSDLIPAPPLSKVPLQQNFQDNQFQGKWYVVGLAGNAILREDKQPAKMFATIYELKEDKSYDVTSVRFEAKSCKYTIKTFVPGSQPGEFTAGYIKSAPGQTSTLVRVVSTNYNQHAMVFFKHVTQNREIFVITLYGRTKELTSELKENFIRFSKSLGLPENHIVFPVPIDQCIDG	73 °C	59 °C
Binding	no	no	yes	yes	no	No binding	No binding	No binding	–	–	SEQ ID NO: 9: parent CTGF-binding hNGAL lipocalin mutein (protein, lipocalin mutein) QDSTSDLIPAPPLSKVPLQQNFQDNQFHGKWYVVGLAGNKILRIDKQPAKMFATIYELKEDKSYDVTSVRFEARSCSYTIKTFVPGSQPGEFTAGNIKSAPGQTSTLVRVVSTNYNQHAMVFFKHVSQNRETFVITLYGRTKELTSELKENFIRFSKSLGLPENHIVFPVPIDQCIDG	64 °C	–
Binding	–	–	–	–	–	No binding	No binding	No binding	–	–	SEQ ID NO: 74: fusion protein comprising two CTGF-binding lipocalin muteins (protein, fusion protein) QDSTSDLIPAPPLSKVPLQQNFQDNQFQGKWYVVGLAGNAILREDKQPAKMFATIYELKEDKSYDVTSVRFEAKSCKYTIKTFVPGSQPGEFTAGYIKSAPGQTSTLVRVVSTNYNQHAMVFFKHVTQNREIFVITLYGRTKELTSELKENFIRFSKSLGLPENHIVFPVPIDQCIDGGGGGSGGGGSGGGGSQDSTSDLIPAPPLSKVPLQQNFQDNQFQGKWYVVGWAGNVKLREDKQPQKMSATIYELKEDKSYDVTEVVFEQKKCHYIIKTFVPGSQPGEFTAGDIKSPPGYTSSLVRVVSTNYNQHAMVFFKKVSQNREFFWITLYGRTKELTSELKENFIRFSKSLGLPENHIVFPVPIDQCIDG	72 °C	62 °C
Binding	yes	yes	no	no	yes	No binding	No binding	No binding	–	–	SEQ ID NO: 25: parent CTGF-binding hNGAL lipocalin mutein (protein, lipocalin mutein) QDSTSDLIPAPPLSKVPLQQNFQDNQFHGKWYVVGMAGNFRLREDKDPSKMGATIYELKEDKSYNVTQVQFDDKKCLYVIETFVPGSQPGEFTLGAIKSFPGFTSQLVRVVSTNYNQHAMVFFKKVYQNREVFWITLYGRTKELTSELKENFIRFSKSLGLPENHIVFPVPIDQCIDG	66 °C	–
Binding	–	–	–	–	yes	No binding	No binding	No binding	–	no	SEQ ID NO: 3: parent CTGF-binding hNGAL lipocalin mutein (protein, lipocalin mutein) QDSTSDLIPAPPLSKVPLQQNFQDNQFHGKWYVVGRAGNNRLREDKDPPKMWATIYELKEDKSYNVTHVHFMTKKCRYIIDTFVPGSQPGEFTLGAIKSGPGMTSPLVRIVSTNYNQHAMVFFKWVNQNREWFTITLYGRTKELTSELKENFIRFSKSLGLPENHIVFPVPIDQCIDG	58 °C	–
